These are literature values, as cited in paper PMC6614495.

As a reminder, the Kd is the concentration at which binding is half-saturated.

For the data set, the target named is Amyloid beta (Homo sapiens) (UniProt P05067).
Amyloid beta (Homo sapiens), sequence (P05067 672-711): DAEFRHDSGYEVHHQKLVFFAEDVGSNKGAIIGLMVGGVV

Clusterin (ApoJ), sequence (P10909 23-227): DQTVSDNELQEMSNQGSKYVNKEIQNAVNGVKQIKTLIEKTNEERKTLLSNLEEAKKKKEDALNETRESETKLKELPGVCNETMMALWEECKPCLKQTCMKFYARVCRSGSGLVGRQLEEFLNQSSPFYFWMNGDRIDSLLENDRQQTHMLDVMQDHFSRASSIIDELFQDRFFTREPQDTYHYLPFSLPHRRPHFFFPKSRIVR
Clusterin (ApoJ), sequence (P10909 228-449): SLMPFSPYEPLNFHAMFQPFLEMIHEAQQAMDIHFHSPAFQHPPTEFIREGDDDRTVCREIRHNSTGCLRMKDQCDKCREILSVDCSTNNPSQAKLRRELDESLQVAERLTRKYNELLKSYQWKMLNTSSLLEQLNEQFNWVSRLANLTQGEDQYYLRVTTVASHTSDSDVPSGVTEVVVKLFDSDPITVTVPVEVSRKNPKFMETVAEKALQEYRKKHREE

Regarding Clusterin (ApoJ) (from UniProt P10909), the Kd was 2 nM.
